From PMC5097169, “Acetylation of histone H4 lysine 5 and 12 is required for CENP-A deposition into centromeres” (Nature Communications, 2016)

Target: T1, Flag RbAp46 (Xenopus, recombinant) (Xenopus, UniProt Q8AVH1 1-425)
T1 construct: RbAp46, Xenopus (xRbAp46); also called xRbAp46
Assay: pull-down; GST-histone tails coupled to NHS Sepharose (20 μl resin) with 0.7 μg Hat1, RbAp46 or RbAp48, or RbAp46 with Hat1, in 150 μl 20 mM K-HEPES pH 7.4, 50 mM KCl, 0.1% Tween-20, 5 mM DTT; 2 h at 4 °C; washes with 300 mM KCl; coomassie-stained gel
Conditions: both partners purified

T1 sequence (Q8AVH1 whole entry): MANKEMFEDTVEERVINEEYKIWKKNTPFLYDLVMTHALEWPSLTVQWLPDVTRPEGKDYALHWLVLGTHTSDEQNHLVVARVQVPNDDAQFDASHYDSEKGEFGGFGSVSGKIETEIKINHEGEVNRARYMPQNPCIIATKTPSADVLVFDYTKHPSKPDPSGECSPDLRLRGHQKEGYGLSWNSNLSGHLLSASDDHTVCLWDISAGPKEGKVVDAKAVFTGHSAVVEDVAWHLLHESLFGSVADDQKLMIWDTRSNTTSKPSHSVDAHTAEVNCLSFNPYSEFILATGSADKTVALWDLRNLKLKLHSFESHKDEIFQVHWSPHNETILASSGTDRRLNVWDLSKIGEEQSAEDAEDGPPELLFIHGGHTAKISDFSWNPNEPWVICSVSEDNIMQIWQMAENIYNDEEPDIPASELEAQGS

B1: GST fusion to Xenopus laevis CENP-A amino terminus (amino acids 1–50) (domain or fragment, UniProt Q569M3 1-50, looked up)
chain: MRPGSTPPSRRKSRPPRRVSPPLPTTSRTSPRRPHAQQQRRASRASPKKR
notes: CENP-A, Xenopus laevis, amino terminus, amino acids 1–50, in pGEX-6P-1; also called GST-CENP-A N-terminal tail; xCENP-A N-terminus
  binding result: binds
